{"source": "patent US20110020842", "key": {"[1]": {"target": "arrayed peptide library (198 peptide mixtures with a central fixed Ser/Thr phosphorylation site, degenerate flanking positions and a carboxy-terminal biotin tag)"}, "[2]": {"target": "T1, consensus peptide substrate eEF2p (Ac-RKKYKFNEDTERRRFL)", "T1 chain": "RKKYKFNEDTERRRFL"}}}
{"protein": "eEF2 kinase (Elongation Factor 2 Kinase) (protein) MADEDLIFRLEGVDGGQSPRAGHDGDSDGDSDDEEGYFICPITDDPSSNQNVNSKVNKYYSNLTKSERYSSSGSPANSFHFKEAWKHAIQKAKHMPDPWAEFHLEDIATERATRHRYNAVTGEWLDDEVLIKMASQPFGRGAMRECFRTKKLSNFLHAQQWKGASNYVAKRYIEPVDRDVYFEDVRLQMEAKLWGEEYNRHKPPKQVDIMQMCIIELKDRPGKPLFHLEHYIEGKYIKYNSNSGFVRDDNIRLTPQAFSHFTFERSGHQLIVVDIQGVGDLYTDPQIHTETGTDFGDGNLGVRGMALFFYSHACNRICESMGLAPFDLSPRERDAVNQNTKLLQSAKTILRGTEEKCGSPQVRTLSGSRPPLLRPLSENSGDENMSDVTFDSLPSSPSSATPHSQKLDHLHWPVFSDLDNMASRDHDHLDNHRESENSGDSGYPSEKRGELDDPEPREHGHSYSNRKYESDEDSLGSSGRVCVEKWNLLNSSRLHLPRASAVALEVQRLNALDLEKKIGKSILGKVHLAMVRYHEGGRFCEKGEEWDQESAVFHLEHAANLGELEAIVGLGLMYSQLPHHILADVSLKETEENKTKGFDYLLKAAEAGDRQSMILVARAFDSGQNLSPDRCQDWLEALHWYNTALEMTDCDEGGEYDGMQDEPRYMMLAREAEMLFTGGYGLEKDPQRSGDLYTQAAEAAMEAMKGRLANQYYQKAEEAWAQMEE", "values": [{"measurement": "phosphorylation of peptide library (radiolabel incorporation)", "setting": "[1]", "value": "The kinase was able to efficiently phosphorylate peptides within the library"}, {"measurement": "fold increase in activity as compared to peptide MH-U", "setting": "[2]", "value": "30 to 35", "unit": "fold increase in activity"}, {"measurement": "phosphorylation at a single substrate concentration (100 µM)", "setting": "[2]", "value": "both peptides are efficiently phosphorylated by their respective kinases"}]}
